Patent US9114109B2, “Five-coordinate neuroglobin and use thereof as a blood substitute” (University of Pittsburgh—Of the Commonwealth System of …, priority 2009, dated 2015)
Where a chain is given by its changes, count along the chain named. In names and notes the source's numbering stands. Read-outs that look alike come from different tables or passages of the source.

How the values were obtained:
[1] = tested on: isolated rat liver mitochondria; assay: Hypoxic inhibition of respiration of isolated mitochondria; assay type: cell-based; settings: for inhibition of respiration, incubated alone (in words): nitrite 20 μM or protein 5 μM alone; for inhibition of respiration (cyanide = 100%): 5 μM protein with 20 μM nitrite, hypoxia
Method: (§1) Mitochondria were isolated from the livers of male Sprague Dawley rats and incubated with wild-type or mutant Ngb proteins in a sealed, stirred chamber at 37° C. State 3 respiration was stimulated with succinate (15 mM) and ADP (1 mM) and oxygen consumption was measured with a Clark-type oxygen electrode. To measure inhibition of respiration in hypoxic conditions, respiring mitochondria were allowed to consume oxygen until the chamber became anoxic and then the chamber lid was removed to allow the diffusion of air back into the chamber. The rate of mitochondrial respiration was greater than the rate of oxygen entering the chamber such that the oxygen electrode trace remained at zero while the mitochondria were respiring. Nitrite was added to the chamber prior to the removal of the lid and deviation of the oxygen trace from a zero reading signified a decrease in respiration rate. All experiments were performed under conditions where substrates were not limiting. The extent of respiratory inhibition was quantified by measuring the time from equilibration of the mitochondria with air to the time when the oxygen trace deviated from zero. This time to inhibition was expressed as a percentage of maximal inhibition, where 100% inhibition was defined as the time to inhibition in the presence of cyanide and the time to the exhaustion of substrates was used as a measure of 0% inhibition. Similar experiments were performed with SHSY5Y cells suspended in the respirometer and treated with the uncoupler FCCP (5 μM) to measure hypoxic inhibition of cellular respiration.

[2] = Anaerobic reaction of deoxygenated globins with excess nitrite (nitrite reductase kinetics, absorption / stopped-flow spectroscopy); assay type: biochemical; settings: for rate of nitrite reduction (in words): cysteine to alanine mutants; for relative percentage of the total absorbance change (Soret peak 425 nm) in the first 60 minutes: 0.1 M HEPES pH 7.4, H64L-Ngb normalized to 100%
Method: Oxygen contamination was prevented by application of positive argon pressure without a channel for gas escape. Concentrations of single species during reactions were determined by least squares deconvolution of the visible absorption spectrum into standard reference spectra using Microsoft Excel analysis. OxyNgb was included to confirm successful deoxygenation before the reaction. […] Fast kinetic studies were performed using an Applied Photophysics DX-17 stopped-flow instrument equipped with rapid-scanning diode array detection. […] To determine bimolecular rate constants all reactions were analyzed with Pro-K software (Applied Photophysics) using singular value decomposition followed by fitting of the reduced data matrix to a pseudo-first order kinetic model.

[3] = cited from earlier work
[4] = nitrite 7-230 μM; cited from earlier work
[5] = Determination of nitrite binding constants to met-Ngb (difference spectra titration); settings: met-Ngb 10 μM, 200 mM phosphate buffer, pH 7.4, 25° C.; read-out: Kd (NO2^−)
Method: To determine the binding constant of nitrite to metNgb, 10 μM wild type and mutant Ngb in 200 mM phosphate buffer, pH 7.4, were incubated in a cuvette at 25° C. with increasing concentrations of nitrite and the UV—visible spectra were recorded after each increase in nitrite concentration. The constant KD for each protein was determined by interpolation of the absorbance data following procedures in Nicolis et al. (Biochem J 407:89-99, 2007).

[6] = Reaction of met-Ngb with nitrite to produce nitrosyl-Ngb (nitrite ferric heme reduction); assay type: biochemical; settings: met-Ngb with nitrite in the presence of dithionite
SHSY5Y cells = assay: Hypoxic inhibition of cellular respiration in SHSY5Y cells expressing Ngb; assay type: cell-based; settings: cells stably transfected with GFP-tagged Ngb, nitrite added, FCCP
Method: as §1, with “Similar experiments were performed with SHSY5Y cells suspended in the respirometer and treated with the uncoupler FCCP (5 μM) to measure hypoxic inhibition of cellular respiration.” left out

[7] = Midpoint redox potential of the thiol/disulfide couple in Ngb (GSH/GSSG gradient, Nernst fit of kobs); assay type: physicochemical; settings: 37° C., 0.1 M phosphate buffer pH 7.0, GSH/GSSG
Method: Wild-type and C55A mutant Ngb (50-60 μM) were incubated at 37° C. in anaerobic glove box with solutions containing various ratios of reduced (GSH) and oxidized (GSSG) glutathione, with the total GSH and GSSG concentration fixed at 25 mM in 0.1 M phosphate buffer pH=7.0. The GSH/GSSG ratio was varied to establish a gradient of redox potentials between −130 and −250 mV, calculated by the Nernst equation according to a midpoint reduction potential of −240 mV (Yi et al., J Biol Chem 284:20556-20561, 2009). After at least 1 hour incubation, glutathione was removed by passage through a G25 column and Ngb was reacted immediately with 10 mM nitrite in 0.1 M phosphate buffer pH=7.0 as described above. The observed rate constant determined at each glutathione ratio was fitted using the Nernst equation and the midpoint reduction potential of the thiol/disulfide couple of Ngb calculated.

[8] = cited from earlier work; remark: listed apart in the source
[9] = EPR spectroscopy of iron-nitrosyl-heme formation from nitrite; assay type: biochemical; settings: 1 mM nitrite; for rate of iron-nitrosyl-Ngb / NO formation by EPR (in words): 40±5 μM protein
Method: Iron nitrosyl species were measured by EPR spectroscopy using a Bruker EMX 10/12 spectrometer operating at 9.4 GHz, 5-G modulation, 10.1-milliwatt power, 327.68-ms time constant and 163.84-s scan over 600 G at 110 K as described previously (Basu et al., J Biol Chem 283:32590-32597, 2008; Azarov et al., J. Biol. Chem. 280:[…], 2005). The concentrations of Mb and Ngb species were determined by performing the double integral calculation and comparing to standard samples.

[10] = Direct measurement of NO release in gas phase (chemiluminescence); assay type: biochemical; settings: for rate of NO detected in gas phase (in words): 20 μM Ngb, 1 mM nitrite, anaerobic
Description: Once a stable baseline was established Ngb was reacted with a known amount of nitrite as previously described (Huang et al., J Clin Invest 115:2099-2107, 2005).

SHSY5Y neuronal cells = assay: Determination of cGMP in SHSY5Y neuronal cells under hypoxia; assay type: cell-based; settings: 6 hours hypoxia (1% oxygen), no exogenous nitrite, cells expressing the protein
Method: SHSY5Y cells, expressing the GFP vector, wild type Ngb or H64L mutant Ngb were plated on Corning® CellBIND® Surface 100 mm culture dishes at a concentration of 5-7.5×10^5 cells/plate and grown to 80-90% confluence. After four days of growth, the cells were incubated for 6 hours under hypoxic conditions (1% oxygen). Following hypoxic treatment, the cGMP levels were measured using the cyclic GMP EIA Kit (Cayman Chemicals catalog #581021) according to the manufacturer's instructions. Protein levels were measured and used to normalize results.

O=NO [nitrite, reference compound]
inhibition of respiration, incubated alone (in words) [1]: No significant inhibition

B1: Myoglobin: horse heart myoglobin, purified by Sephadex G-25 gel filtration (protein, UniProt P68082 2-154, looked up)
Myoglobin: GLSDGEWQQVLNVWGKVEADIAGHGQEVLIRLFTGHPETLEKFDKFKHLKTEAEMKASEDLKKHGTVVLTALGGILKKKGHHEAELKPLAQSHATKHKIPIKYLEFISDAIIHVLHSKHPGDFGADAQGAMTKALELFRNDIAAKYKELGFQG
BRC of myoglobin reaction with nitrite ([2]; 100 mM phosphate buffer with EDTA, pH 7.4, 25° C.): 2.9 ± 0.2 M⁻¹ s⁻¹

B2: neuroglobin: heme containing, monomeric, 16.9 kDa protein; literature values of the background section (protein, listed as Homo sapiens)
chain: MERPEPELIRQSWRAVSRSPLEHGTVLFARLFALEPDLLPLFQYNCRQFSSPEDCLSSPEFLDHIRKVMLVIDAAVTNVEDLSSLEEYLASLGRKHRAVGVKLSSFSTVGESLLYMLEKCLGPAFTPATRAAWSQLYGAVVQAMSRGWDGE
oxygen affinity P50 ([3]; 20° C.): 1-2 mmHg | oxygen affinity P50 ([3]; after disulfide bond formation): ~1 mmHg | oxygen affinity P50 ([3]; before disulfide bond formation): about 9 mmHg

B3: C46A: recombinant human neuroglobin mutant with cysteine 46 replaced by alanine (protein, UniProt Q9NPG2 1-151, looked up, variant C46A)
Neuroglobin: B2 chain with C46A
rate of nitrite reduction (in words) [2]: slowed down the rate of nitrite reduction to similar rates observed with Ngb having fully reduced cysteines

B4: mouse neuroglobin: deoxy mouse neuroglobin of a cited study (Petersen et al., 2008) (protein, UniProt Q9ER97 1-151, looked up)
Neuroglobin: B2 chain with P6S, A15V, D37S, C46G, A90T, K102R, A124D, A131T, Q135R
apparent second-order rate constant [4]: 5.1 ± 0.4 M⁻¹ s⁻¹

B5: WT SS: recombinant wild-type human neuroglobin (SEQ ID NO: 8), as purified with the C46-C55 disulfide bond formed (protein, listed as Homo sapiens)
chain: B2 chain
modifications: C46-C55 disulfide
relative percentage of the total absorbance change (Soret peak 425 nm) in the first 60 minutes ([2]; 1 mM nitrite): 38% | calculated BRC in the presence of dithionite ([2]; 10 mM nitrite, 10 μM deoxy-Ngb, 3 mM dithionite, pH 7.4, 100 mM phosphate buffer): 0.11 ± 0.01 M⁻¹ s⁻¹ | second-order bimolecular rate constant from linear fit of kobs versus nitrite concentration ([2]; nitrite 0.25-20 mM, 100 mM phosphate buffer, 25° C.): 0.12 ± 0.02 M⁻¹ s⁻¹ | acceleration of the reaction for each pH unit decrease ([2]; pH 6.5-8.0): 10 fold | slope of linear fit, order of rate dependence on [H^+] ([2]; pH 6.5-8.0): 0.96 | instantaneous bimolecular rate constant (BRC) of reaction of nitrite with Ngb ([2]; pH 7.4, 25° C., 10 μM deoxy-Ngb, 10 mM nitrite, no dithionite): 0.12 ± 0.02 M⁻¹ s⁻¹ | instantaneous bimolecular rate constant (BRC) of reaction of nitrite with Ngb ([2]; pH 7.4, 37° C.): 0.26 ± 0.02 M⁻¹ s⁻¹ | Kd [5]: 6.2 ± 2.1 mM | BRC of nitrite ferric heme reduction [6]: 0.0005 ± 0.0005 | inhibition of respiration (cyanide = 100%) [1]: 78±6% | inhibition of respiration, incubated alone (in words) [1]: No significant inhibition | extent of respiration inhibition compared to cyanide (SHSY5Y cells): about 15% | midpoint redox potential of the C46/C55 thiol/disulfide couple [7]: −194±3 mV | kon of NO for the ferrous Ngb heme [8]: 10^8 M^−1 s^−1

B6: WT SH: wild-type human neuroglobin without disulfide bond, cysteines reduced by incubation with 10 mM DTT (protein, UniProt Q9NPG2 1-151, looked up)
Neuroglobin: B2 chain
modifications: cysteines reduced with DTT
notes: wild-type human neuroglobin without disulfide bond, cysteines reduced by incubation with 10 mM DTT
relative percentage of the total absorbance change (Soret peak 425 nm) in the first 60 minutes ([2]; 1 mM nitrite): 20% | rate of nitrite reduction after reduction of the disulfide bond ([2]; cysteines reduced with 10 mM DTT, 25° C., pH 7.4): 0.062 ± 0.005 M⁻¹ s⁻¹ | slowing of nitrite reduction rate by reduction of the disulfide bond ([2]; relative to oxidized wild type, 25° C., pH 7.4): about 2 fold | Kd [5]: 12.6 ± 3.3 mM | BRC of nitrite ferric heme reduction [6]: 0.0002 ± 0.0005 | rate of iron-nitrosyl-Ngb / NO formation by EPR (in words) [9]: slowed the rate of iron-nitrosyl-Ngb formation

B7: H64L: stable five-coordinate mutant of human neuroglobin, His64 to Leu substitution, SEQ ID NO: 9 (protein)
chain: B2 chain with H64L
BRC higher than the wild type Ngb ([2]; 100 μM nitrite, excess dithionite, relative to wild type): approximately 2000 fold | relative percentage of the total absorbance change (Soret peak 425 nm) in the first 60 minutes ([2]; 1 mM nitrite): 100% | time to end point of the reaction (in words) ([2]; 1 mM nitrite, pH 7.4): reached the end point in the first minute | BRC from linear fit of kobs versus nitrite concentration (stopped-flow) ([2]; nitrite 10-1000 μM, 25° C., pH 7.4): 259 ± 8 M⁻¹ s⁻¹ | rate of nitrite reaction at acidic pH ([2]; pH 6.5 and 25° C.): above 2,500 M^−1 s^−1 | nitrite reduction to NO, faster than wild type neuroglobin ([2]; relative to wild type): approximately 2000 times | Kd [5]: 0.17 ± 0.08 mM | rate of NO detected in gas phase (in words) [10]: increased | NO generation with increasing amounts of nitrite (in words) ([10]; 30 μM protein, nitrite 10-1000 μM): a readily proportional NO generation response was observed | BRC of nitrite ferric heme reduction [6]: 0.032 ± 0.002 | completion of iron-nitrosyl formation by EPR (in words) [9]: almost complete in one minute | rate of iron-nitrosyl-Ngb / NO formation by EPR (in words) [9]: dramatically increased the rate of NO formation | inhibition of respiration (cyanide = 100%) [1]: 96±2% | extent of respiration inhibition compared to cyanide (SHSY5Y cells): ~40% | cGMP levels (in words) (SHSY5Y neuronal cells): significantly increased

B8: C55A: recombinant human neuroglobin mutant with cysteine 55 replaced by alanine, six-coordinate (protein, UniProt Q9NPG2 1-151, looked up, variant C55A)
Neuroglobin: B2 chain with C55A
relative percentage of the total absorbance change (Soret peak 425 nm) in the first 60 minutes ([2]; 1 mM nitrite): 18% | rate of nitrite reduction (in words) [2]: slowed down the rate of nitrite reduction to similar rates observed with Ngb having fully reduced cysteines | Kd [5]: 30.1 ± 4.5 mM | rate of NO detected in gas phase (in words) [10]: significantly decreased | BRC of nitrite ferric heme reduction [6]: 0.0002 ± 0.0005 | inhibition of respiration (cyanide = 100%) [1]: 62±4%
